Assay results as given in patent US20230212587A1, “Mutant Hydroxyphenylpyruvate Dioxygenase Polypeptide, Encoding Gene Thereof and Use Therefor” (Beijing Dabeinong Biotechnology Co., Ltd., priority 2019, published 2023).

System: Arabidopsis thaliana T1 plants
Assay: Topramezone tolerance of transgenic Arabidopsis thaliana T1 plants (pesticide damage grade by bleached leaf area, score, resistance evaluation)
Type: in vivo
Parameters: score: scale not given here
Settings: for Classification and statistics of pesticide damage grade Grade 0 / Classification and statistics of pesticide damage grade Grade 1 / Classification and statistics of pesticide damage grade Grade 2 / Classification and statistics of pesticide damage grade Grade 3 / Classification and statistics of the grade of pesticide damage Grade 0 / Classification and statistics of the grade of pesticide damage Grade 1 / Classification and statistics of the grade of pesticide damage Grade 2 / Classification and statistics of the grade of pesticide damage Grade 3: number of plants (of 16) in this grade; for Classification and statistics of pesticide damage grade Grade 0 / Classification and statistics of pesticide damage grade Grade 1 / Classification and statistics of pesticide damage grade Grade 2 / Classification and statistics of pesticide damage grade Grade 3 / Scores / Resistance evaluation / Classification and statistics of the grade of pesticide damage Grade 0 / Classification and statistics of the grade of pesticide damage Grade 1 / Classification and statistics of the grade of pesticide damage Grade 2 / Classification and statistics of the grade of pesticide damage Grade 3: 7 DAT
Source text: The Arabidopsisthaliana T1 plants into which the AsHPPDm-F372A-02 nucleotide sequence was introduced, Arabidopsis thaliana T1 plants into which the AsHPPD-02 nucleotide sequence was introduced and wild-type Arabidopsisthaliana plants (18 days after sowing) were sprayed with topramezone at four different concentrations, i.e., 25 g ai/ha (one-fold field concentration, 1×), 50 g ai/ha (two-fold field concentration, 2×), 100 g ai/ha (four-fold field concentration, 4×) and 0 g ai/ha (water, 0×) to determine the tolerance of Arabidopsisthaliana to the herbicide. The degree of damage caused by the herbicide was measured for each plant according to the proportion of bleached leaf area (the proportion of bleached leaf area=bleached leaf area/total leaf area×100%) 7 days after spraying (7 DAT): the case where there is basically no bleached phenotype is defined as grade 0, the case where the proportion of bleached leaf area is less than 50% is defined as grade 1,the case where the proportion of bleached leaf area is more than 50% is defined as grade 2, and the case where the proportion of bleached leaf area is 100% grade is defined as grade 3.
(§1) According to the method as described above in point 6 of Example 1, the aforementioned Arabidopsisthaliana T1 plants and wild-type Arabidopsisthaliana plants (18 days after sowing) were sprayed with topramezone at three different concentrations respectively, i.e., 25 g ai/ha (one-fold field concentration, 1×), 100 g ai/ha (four-fold field concentration, 4×) and 0 g ai/ha(water, 0×) to detect the tolerance of Arabidopsisthaliana to the herbicide.
as §1, with “1x),” for “1×),”, “4x)” for “4×)”, “ai/ha (water, 0x)” for “ai/ha(water, 0×)”
According to the method as described above in point 6 of Example 1, the above-mentioned Arabidopsisthaliana T1 plants, Arabidopsisthaliana T1 plants into which the AsHPPD-02 nucleotide sequence was introduced, Arabidopsisthaliana T1 plants into which the PfHPPD-02 nucleotide sequence was introduced, and wild-type Arabidopsisthaliana plants (18 days after sowing) were sprayed with topramezone at four different concentrations respectively, that is, 25 g ai/ha (one-fold field concentration, 1x), 50 g ai/ha (two-fold field concentration, 2x), 100 g ai/ha (four-fold field concentration, 4x) and 0 g ai/ha (water, Ox) to detect the herbicide tolerance of Arabidopsisthaliana.
According to the method as described in point 6 of Example 1, the above-mentioned Arabidopsisthaliana T1 plants and wild-type Arabidopsisthaliana plants (18 days after sowing) were sprayed with topramezone at two different concentrations respectively, that is, 25 g ai/ha (one-fold field concentration, 1x) and 100 g ai/ha (four-fold field concentration, 4x) to detect the herbicide tolerance of Arabidopsisthaliana,. […]

[1] = HPPDs from different species, topramezone 25 g ai/ha (1x)
[2] = HPPDs from different species, topramezone 100 g ai/ha (4x)
[3] = topramezone 25 g ai/ha, mutation combination, Table 8
[4] = topramezone 100 g ai/ha, mutation combination, Table 8
[5] = non-372 position mutants, number of plants (of 20) in this grade, topramezone 25 g ai/ha (1x)
[6] = non-372 position mutants, number of plants (of 20) in this grade, topramezone 100 g ai/ha (4x)
[7] = topramezone 25 g ai/ha (1x), HPPD from Avena sativa source
[8] = topramezone 25 g ai/ha (1x), number of plants, HPPD from Avena sativa source
[9] = topramezone 50 g ai/ha (2x), HPPD from Avena sativa source
[10] = topramezone 50 g ai/ha (2x), number of plants, HPPD from Avena sativa source
[11] = topramezone 100 g ai/ha (4x), HPPD from Avena sativa source
[12] = topramezone 100 g ai/ha (4x), number of plants, HPPD from Avena sativa source

B1: PfHPPD-02: native Pseudomonas fluorescens HPPD, SEQ ID NO: 27 (protein, listed as Pseudomonas fluorescens)
chain: MADLYENPMGLMGFEFIEFASPTPGTLEPIFEIMGFTKVATHRSKNVHLYRQGEINLILNNEPNSIASYFAAEHGPSVCGMAFRVKDSQKAYNRALELGAQPIHIDTGPMELNLPAIKGIGGAPLYLIDRFGEGSSIYDIDFVYLEGVERNPVGAGLKVIDHLTHNVYRGRMVYWANFYEKLFNFREARYFDIKGEYTGLTSKAMSAPDGMIRIPLNEESSKGAGQIEEFLMQFNGEGIQHVAFLTDDLVKTWDALKKIGMRFMTAPPDTYYEMLEGRLPDHGEPVDQLQARGILLDGSSVEGDKRLLLQIFSETLMGPVFFEFIQRKGDDGFGEGNFKALFESIERDQVRRGVLTAD
modifications: PfHPPD Amino Acid Sequence
[1]
  Classification and statistics of pesticide damage grade Grade 0: 0
  Classification and statistics of pesticide damage grade Grade 1: 0
  Classification and statistics of pesticide damage grade Grade 2: 0
  Classification and statistics of pesticide damage grade Grade 3: 16
  Resistance evaluation: non-resistant (non-resistant plants (scores 68-100))
[2]
  Classification and statistics of pesticide damage grade Grade 0: 0
  Classification and statistics of pesticide damage grade Grade 1: 0
  Classification and statistics of pesticide damage grade Grade 2: 0
  Classification and statistics of pesticide damage grade Grade 3: 16
  Resistance evaluation: non-resistant (non-resistant plants (scores 68-100))
HPPDs from different species, score for pesticide damage 0-100, topramezone 25 g ai/ha (1x)
  Scores: 100
HPPDs from different species, score for pesticide damage 0-100, topramezone 100 g ai/ha (4x)
  Scores: 100
Saturation mutation of HPPD from Pseudomonas fluorescens source (label F372X = PfHPPDm-F372X), topramezone 25, 50, 100 g ai/ha
  tolerance to topramezone, in words: no tolerance
[3]
  Grade 0 (number of plants): 0
  Grade 1 (number of plants): 0
  Grade 2 (number of plants): 0
  Grade 3 (number of plants): 20
  Resistance Grade: Non-resistant
  score: 100
[4]
  Grade 0 (number of plants): 0
  Grade 1 (number of plants): 0
  Grade 2 (number of plants): 0
  Grade 3 (number of plants): 20
  Resistance Grade: Non-resistant
  score: 100

B2: AsHPPD-02: Avena sativa native HPPD, SEQ ID NO: 1; gene SEQ ID NO: 3 (protein, listed as Avena sativa)
chain: MPPTPATATGAAAAAVTPEHAARSFPRVVRVNPRSDRFPVLSFHHVELWCADAASAAGRFSFALGAPLAARSDLSTGNSAHASLLLRSGALAFLFTAPYAPPPQEAATAAATASIPSFSADAARTFAAAHGLAVRSVGVRVADAAEAFRVSVAGGARPAFAPADLGHGFGLAEVELYGDVVLRFVSYPDETDLPFLPGFERVSSPGAVDYGLTRFDHVVGNVPEMAPVIDYMKGFLGFHEFAEFTAEDVGTTESGLNSVVLANNSEAVLLPLNEPVHGTKRRSQIQTYLEYHGGPGVQHIALASNDVLRTLREMRARTPMGGFEFMAPPQAKYYEGVRRIAGDVLSEEQIKECQELGVLVDRDDQGVLLQIFTKPVGDRPTFFLEMIQRIGCMEKDEVGQEYQKGGCGGFGKGNFSELFKSIEDYEKSLEVKQSVVAQKS
modifications: AsHPPD Amido Acid Sequence
Arabidopsis thaliana T1 plants sprayed with topramezone
  tolerance to topramezone, in words: no or relatively low tolerance
[5]
  Grade 0: 0
  Grade 1: 5
  Grade 2: 13
  Grade 3: 2
[6]
  Grade 0: 0
  Grade 1: 0
  Grade 2: 4
  Grade 3: 16
non-372 position mutants, score for pesticide damage 0-100, topramezone 25 g ai/ha (1x)
  score: 62
non-372 position mutants, score for pesticide damage 0-100, topramezone 100 g ai/ha (4x)
  score: 93
non-372 position mutants, topramezone 25 g ai/ha (1x)
  Resistance Grade: poorly resistant (poorly resistant plants (scores 34-67))
non-372 position mutants, topramezone 100 g ai/ha (4x)
  Resistance Grade: non-resistant (non-resistant plants (scores 68-100))
Topramezone 25 g ai/ha (1x)
  Classification and statistics of the grade of pesticide damage Grade 0: 0
  Classification and statistics of the grade of pesticide damage Grade 1: 4
  Classification and statistics of the grade of pesticide damage Grade 2: 12
  Classification and statistics of the grade of pesticide damage Grade 3: 0
  Resistance evaluation: poorly resistant (poorly resistant plants (scores 34-67))
Topramezone 50 g ai/ha (2x)
  Classification and statistics of the grade of pesticide damage Grade 0: 0
  Classification and statistics of the grade of pesticide damage Grade 1: 0
  Classification and statistics of the grade of pesticide damage Grade 2: 6
  Classification and statistics of the grade of pesticide damage Grade 3: 10
  Resistance evaluation: non-resistant (non-resistant plants (scores 68-100))
Topramezone 100 g ai/ha (4x)
  Classification and statistics of the grade of pesticide damage Grade 0: 0
  Classification and statistics of the grade of pesticide damage Grade 1: 0
  Classification and statistics of the grade of pesticide damage Grade 2: 4
  Classification and statistics of the grade of pesticide damage Grade 3: 12
  Resistance evaluation: non-resistant (non-resistant plants (scores 68-100))
Saturation mutation of HPPD from Avena sativa source (label F372X = AsHPPDm-F372X), topramezone 25, 50, 100 g ai/ha
  tolerance to topramezone, in words: no or low tolerance
Score for pesticide damage 0-100, topramezone 25 g ai/ha (1x)
  Scores: 58
Score for pesticide damage 0-100, topramezone 50 g ai/ha (2x)
  Scores: 88
Score for pesticide damage 0-100, topramezone 100 g ai/ha (4x)
  Scores: 92
[7]
  Resistance Grade: Poorly resistant
  score: 57
[8]
  Grade 0: 2
  Grade 1: 2
  Grade 2: 16
  Grade 3: 0
[3]
  Grade 0 (number of plants): 2
  Grade 1 (number of plants): 2
  Grade 2 (number of plants): 16
  Grade 3 (number of plants): 0
  Resistance Grade: Poorly resistant
  score: 57
[9]
  Resistance Grade: Non-resistant
  score: 87
[10]
  Grade 0: 0
  Grade 1: 2
  Grade 2: 4
  Grade 3: 14
[11]
  Resistance Grade: Non-resistant
  score: 93
[12]
  Grade 0: 0
  Grade 1: 0
  Grade 2: 4
  Grade 3: 16
[4]
  Grade 0 (number of plants): 0
  Grade 1 (number of plants): 0
  Grade 2 (number of plants): 4
  Grade 3 (number of plants): 16
  Resistance Grade: Non-resistant
  score: 93
